Data reported in PMC11110527 (Chemical Science, 2024).

Target: the molecule itself
Test: negative-stain electron microscopy

B1: AtPORB Y177F_H319A double mutant (enzyme, A. thaliana)
chain: QTAATSSPTVTKSVDGKKTLRKGNVVVTGASSGLGLATAKALAETGKWNVIMACRDFLKAERAAKSVGMPKDSYTVMHLDLASLDSVRQFVDNFRRTETPLDVLVCNAAVFFPTAKEPTYSAEGFELSVATNHLGHFLLARLLLDDLKKSDYPSKRLIIVGSITGNTNTLAGNVPPKANLGDLRGLAGGLNGLNSSAMIDGGDFDGAKAYKDSKVCNMLTMQEFHRRFHEETGVTFASLYPGCIASTGLFREAIPLFRALFPPFQKYITKGYVSETESGKRLAQVVSDPSLTKSGVYWSWNNASASFENQLSEEASDVEKARKVWEISEKLVGLA
binding result: binds
